Molecular target: Human recombinant SMAC (10339-H08E), Sino Biologicals (human) (UniProt Q9NR28)
Assay: microscale thermophoresis; fluorescently labelled SMAC (1 µM) with purified PSD (78-625 nM)

Chain of Human recombinant SMAC (10339-H08E), Sino Biologicals (human) (Q9NR28 56-239 limits assumed, stated change not applied): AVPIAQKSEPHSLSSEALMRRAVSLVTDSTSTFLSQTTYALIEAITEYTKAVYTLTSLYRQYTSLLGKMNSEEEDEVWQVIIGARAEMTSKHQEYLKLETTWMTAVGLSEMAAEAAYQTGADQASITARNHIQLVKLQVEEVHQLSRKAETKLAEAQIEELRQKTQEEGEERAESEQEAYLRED

- Kd: 246 nM
Substance: Purified recombinant protein (full length) of human phosphatidylserine decarboxylase (PSD), with N-terminal His tag, expressed in E. coli (Acris-OriGene) (from UniProt Q58DH2 60-416) (enzyme)
